According to article PMC11443169 (Life Science Alliance, 2024):
Ends that are not written are not given here.

How the values were obtained:
[1] = Recovery of Aβ variants for elution from reversed-phase HPLC under different conditions; type: physicochemical
Excerpt: Senile plaques, which are one of the key pathological features of Alzheimer’s disease (AD), are composed of amyloid β peptides (Aβs) with a variety of secondary and tertiary structures because of post-translational modifications ([Saido et al, 1995], [1996]). This heterogeneity appears to affect catabolism and aggregation rates, resulting in structural changes in plaques. […] In contrast, transgenic (Tg) mice overexpressing human APP with pathogenic mutations primarily accumulate Aβ1-40 and Aβ1-42 ([Sturchler-Pierrat et al, 1997]; [Kawarabayashi et al, 2001]). […] There is, however, some discrepancy among different reports regarding the quantity of Aβ variants, which vary depending on the methods employed. […] However, the use of a heated (50°C) basic solvent containing betaine and limited proteolysis using lysyl endopeptidase allows full recovery in HPLC and detection by mass spectrometry, respectively.
Supplementary file : Table S1. Recovery of various Aβ variants for elution from reversed-phase HPLC under different conditions. TFA, trifluoroacetic acid; TEA, triethylamine.

Method for rat hippocampus: (A, B, C, D, E, F) Variants of ^3H/^14C-Aβx-42 were subjected to in vivo degradation and subsequent analysis as previously described ([Iwata et al, 2000]). Briefly, 0.5 μg Aβx-42 peptide dissolved in phosphate-buffered saline was unilaterally injected into the CA1 sector of the rat hippocampus and subjected to catabolism until the animals were euthanized by decapitation at the indicated time points. There was no contamination of the injection area by plasma or cerebrospinal fluid as immunohistochemically confirmed using anti-rat IgG. After extraction, the products were analyzed by reversed-phase HPLC connected to a flow scintillation monitor. The HPLC profiles in a ^14C mode at time 0 (red), 10 (blue), and 30/60 (black) minutes after the in vivo injection are shown. […] The major peaks at time 0 indicated by the arrows correspond to the intact substrates.
Digitized data of remaining amounts of intact Aβx-42 shown in Fig 1 were plotted, and then exponential approximation curves were drawn using Microsoft Excel. Each analysis of the in vivo catabolic rate of the Aβx-42 variant was carried out by independent experiments with more than five time points.
Male, 8–10-wk-old, Sprague Dawley rats used for in vivo analysis of metabolic rates of radiolabeled Aβx-42 peptides were obtained from Japan SLC. […] They were housed in plastic cages. […]

Aβ1-40: amyloid β peptide 1-40
Recovery for elution from reversed phase HPLC ([1]; solvent TEA/betaine (basic), temperature 50℃): 100% | Recovery for elution from reversed phase HPLC ([1]; solvent TFA, temperature 20℃): 100% | Recovery for elution from reversed phase HPLC ([1]; solvent TFA, temperature 50℃): 100%

Aβ17L-42: Aβ17L-42 (p3 fragment), internally radiolabeled (LVFFAEDVGSNKGAIIGLMVGGVVIA; also: internally radiolabeled, site not given here; UniProt P05067 688-713, looked up, fragment)
Half-life (in vivo half-lives of Aβx-42) (rat hippocampus): 34.69 min
